Experimental findings from paper PMC12392091 are described below.

In this data set the target is T1, DdaA (Ab) (Acinetobacter baumannii ATCC 17978, UniProt V5VBS3 1-335).
T1 sequence: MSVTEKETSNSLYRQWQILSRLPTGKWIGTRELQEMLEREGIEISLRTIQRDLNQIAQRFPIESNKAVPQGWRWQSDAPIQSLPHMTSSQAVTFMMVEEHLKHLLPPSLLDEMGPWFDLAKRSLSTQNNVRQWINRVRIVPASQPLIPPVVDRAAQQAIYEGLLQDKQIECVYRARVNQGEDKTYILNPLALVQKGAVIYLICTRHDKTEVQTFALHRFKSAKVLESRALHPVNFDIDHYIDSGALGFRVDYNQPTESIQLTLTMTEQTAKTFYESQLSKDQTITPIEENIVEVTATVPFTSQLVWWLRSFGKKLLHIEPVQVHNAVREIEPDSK
The data set is described as follows: EMSA. On the technique in general: In EMSA bound probe runs differently from free probe, usually more slowly.

B1: recA promoter WT (FAM-AR-DDRM) (dsDNA)
DNA 1: TTTCCGGTCTGGGCGACACAATATGACGTGTAATTTTAACC
DNA 2: GGTTAAAATTACACGTCATATTGTGTCGCCCAGACCGGAAA
Take B1: the binding result was “binds”.
